How the values were obtained:
[1] = biological target: T1, Pig (Sus scrofa) CTLA-4 on HEK293 cells (Sus scrofa, UniProt Q9MYX7 36-223); experiment: flow cytometry on HEK293 cells transiently expressing pig CTLA-4
T1 construct: whole, on cells; also called pig CTLA-4
Procedure: (§1) Macaque (Macaca fascicularis), pig (Sus scrofa) and mouse (Mus musculus) CTLA-4 proteins were transiently expressed on the surface of HEK293 cells. […] Binding was measured using FACS and analyzed.

[2] = biological target: T2, human CTLA-4 expressed on cells (human, UniProt P16410 36-223); experiment: flow cytometry on HEK293-hCTLA-4 cells, reference tremelimumab
T2 construct: whole, on cells; On stably or transiently transfected HEK293 cells; also called hCTLA-4; HEK293-hCTLA-4 cells
Procedure: To test the binding of antibodies to CTLA-4 under more physiological conditions, the binding of CTLA-4 antibodies to cell-surface CTLA-4 was tested. […] The surface expression of hCTLA-4 in the obtained cell line was tested using a commercial anti-CTLA-4 antibody and compared to the parent cell line (HEK293 without transfection). […] The anti-CTLA-4 antibodies were incubated in serial dilution concentrations with the HEK293-hCTLA-4 cells for 1 hour on ice. Following a wash step, an anti-human antibody conjugated to ALEXA FLUOR® 647® was added for an additional hour. The cells were washed, and propidium iodide (PI) was added to exclude dead cells. The fluorescent signal was measured using FACS and analyzed. Dead cells were removed based on the PI signal. The population was gated based on forward and side scatter (FSC and SSC) parameters, and doublets were removed. The Median Fluorescent Intensity (MFI) of the appropriate channel was calculated for the live single cells from each group. The MFI was plotted versus antibody concentration in Prism software (V6.01) and kinetic parameters were obtained using a curve fit dose response function with four parameters. […] The lower EC₅₀ values indicate increased binding affinity to cell surface hCTLA-4.

hCD28 on HEK293 cells = biological target: T3, hCD28 on HEK293 cells (human, UniProt P10747 19-220); experiment: flow cytometry on transfected HEK293 cells
T3 construct: whole, on cells
Procedure: (§2) HEK293 cells were transfected with expression vectors of the following immune-related proteins: hBTLA, hICOS, hCD28, hPDL1, hPD1, hPDL2, and hCTLA-4. Over-expression of the proteins was verified using commercial antibodies against each target. […] Antibody binding to cells was then detected using flow cytometry. Cells that were incubated only with the secondary antibody were used as a background control. […] Note that “+” indicates binding above the background level and “-” indicate no binding as compared to the background level.

hPDL1 on HEK293 cells = biological target: T4, hPDL1 on HEK293 cells (human, UniProt Q9NZQ7 19-290); experiment: flow cytometry on transfected HEK293 cells
T4 construct: whole, on cells
Procedure: as §2

[3] = biological target: T2, human CTLA-4 expressed on cells; experiment: flow cytometry on transfected HEK293 cells
Procedure: as §2

hICOS on HEK293 cells = biological target: T5, hICOS on HEK293 cells (human, UniProt Q9Y6W8 21-199); experiment: flow cytometry on transfected HEK293 cells
T5 construct: whole, on cells
T5 sequence (looked up): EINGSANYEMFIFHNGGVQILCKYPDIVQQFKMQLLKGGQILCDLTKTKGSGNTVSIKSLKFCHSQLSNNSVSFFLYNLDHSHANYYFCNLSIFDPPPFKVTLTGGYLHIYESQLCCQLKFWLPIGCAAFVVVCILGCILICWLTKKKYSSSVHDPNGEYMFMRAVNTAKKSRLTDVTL
Procedure: as §2

[4] = biological target: T6, Macaque (Macaca fascicularis) CTLA-4 on HEK293 cells (Macaca fascicularis, UniProt G7PL88 36-223); experiment: flow cytometry on HEK293 cells transiently expressing macaque CTLA-4, reference ipilimumab
T6 construct: whole, on cells; also called macaque CTLA-4
Procedure: as §1

[5] = biological target: T6, Macaque (Macaca fascicularis) CTLA-4 on …; experiment: flow cytometry on HEK293 cells transiently expressing macaque CTLA-4, reference tremelimumab
Procedure: as §1

[6] = biological target: T1, Pig (Sus scrofa) CTLA-4 on HEK293 cells; experiment: flow cytometry on HEK293 cells transiently expressing pig CTLA-4, reference ipilimumab
Procedure: as §1

[7] = biological target: T2, human CTLA-4 expressed on cells; experiment: flow cytometry, inhibition of CD86-mFC binding to HEK293-hCTLA-4 cells, reference ipilimumab
Procedure: (§3) As part of their activity, CTLA-4 therapeutic antibodies block the interaction between CTLA-4 and its ligands, leaving the ligands free for CD28 binding. […] First, HEK293-hCTLA-4 cells were incubated with the tested antibodies in a serial dilution for 30 minutes. […] The fluorescence was measured and analyzed. The experiment was performed in triplicate and is representative of three biological repeats.

[8] = biological target: T7, Recombinant human CTLA-4-his (Sino Biologicals, 11159-H08H) (human, UniProt P16410 36-162); experiment: SPR (Biacore T100), reference ipilimumab
T7 construct: Bought protein; also called dimer hCTLA-4; not shown: his tag
Procedure: Recombinant human CTLA-4-his (Sino Biologicals, 11159-H08H) was added in a serial 2-fold dilution, starting at a concentration of 500nM. […] The measurement was corrected using the baseline channel and the protein-antibody interaction was measured by the change in surface resonance and quantified with Biacore T100 control software (version 2.0.4).

[9] = biological target: T2, human CTLA-4 expressed on cells; experiment: cell-based or functional assay
[10] = biological target: T2, human CTLA-4 expressed on cells; experiment: flow cytometry, inhibition of CD86-mFC binding to HEK293-hCTLA-4 cells
Procedure: as §3

[11] = biological target: T8, Mouse (Mus musculus) CTLA-4 on HEK293 cells (Mus musculus, UniProt P09793 36-223); experiment: flow cytometry on HEK293 cells transiently expressing mouse CTLA-4, reference tremelimumab
T8 construct: whole, on cells; also called mouse CTLA-4
Procedure: as §1

[12] = biological target: T8, Mouse (Mus musculus) CTLA-4 on HEK293 …; experiment: flow cytometry on HEK293 cells transiently expressing mouse CTLA-4, reference ipilimumab
Procedure: as §1

[13] = biological target: T2, human CTLA-4 expressed on cells; experiment: flow cytometry, inhibition of CD80-mFC binding to HEK293-hCTLA-4 cells
Procedure: as §3

T2 sequence (P16410 36-223): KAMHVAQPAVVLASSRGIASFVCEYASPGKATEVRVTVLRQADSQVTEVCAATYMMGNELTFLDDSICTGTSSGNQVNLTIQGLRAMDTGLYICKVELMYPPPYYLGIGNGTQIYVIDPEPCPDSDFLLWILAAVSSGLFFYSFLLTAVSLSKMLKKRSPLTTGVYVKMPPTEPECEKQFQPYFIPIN
T7 sequence (P16410 36-162 limits assumed): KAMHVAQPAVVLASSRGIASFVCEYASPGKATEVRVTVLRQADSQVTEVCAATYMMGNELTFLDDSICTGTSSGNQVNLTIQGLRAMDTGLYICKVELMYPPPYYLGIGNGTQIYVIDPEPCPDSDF
T1 sequence (Q9MYX7 36-223): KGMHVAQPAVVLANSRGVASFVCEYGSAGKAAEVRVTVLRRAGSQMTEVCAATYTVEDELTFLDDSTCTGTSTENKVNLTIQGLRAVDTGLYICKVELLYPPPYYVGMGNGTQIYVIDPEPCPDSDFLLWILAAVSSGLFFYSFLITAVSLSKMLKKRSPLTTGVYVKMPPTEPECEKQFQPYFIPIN
T4 sequence (Q9NZQ7 19-290): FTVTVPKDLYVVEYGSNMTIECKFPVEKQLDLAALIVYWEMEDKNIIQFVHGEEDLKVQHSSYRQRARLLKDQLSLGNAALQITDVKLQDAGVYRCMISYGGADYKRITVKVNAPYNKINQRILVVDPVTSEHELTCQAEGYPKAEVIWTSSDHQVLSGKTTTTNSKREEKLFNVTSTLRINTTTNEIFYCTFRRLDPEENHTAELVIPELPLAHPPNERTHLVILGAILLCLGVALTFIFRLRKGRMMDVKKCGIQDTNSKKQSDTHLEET
T6 sequence (G7PL88 entry or part of it): as the sequence (P16410 36-223) above, with S14N, I18T, L106M counted along it

EC50 [1]: 0.12 nM
Ratio Tremelimumab:Ab55h of EC50 [2]: 7.5 fold
MFI (hCD28 on HEK293 cells): 66 MFI
binding result (hCD28 on HEK293 cells): no binding
MFI (hPDL1 on HEK293 cells): 69 MFI
binding result (hPDL1 on HEK293 cells): no binding
MFI [3]: 3290 MFI
MFI (hICOS on HEK293 cells): 67 MFI
binding result (hICOS on HEK293 cells): no binding
Ratio Ipilimumab:Ab55h of EC50 [4]: 2.6 fold
Ratio Tremelimumab:Ab55h of EC50 [5]: 1.7 fold
Ratio Ipilimumab:Ab55h of EC50 [6]: 5590 fold
Ratio Ipilimumab:Ab55h of IC50 [7]: 2.2 fold
Ratio Ipilimumab:Ab55h of Kd [8]: 8.1 fold
Ratio Ipilimumab:Ab55h of Koff [8]: 1.3 fold
Ratio Ipilimumab:Ab55h of Kon [8]: 0.16 fold
SHP1 reporter IC50 [9]: 0.059 nM
SHP1 reporter IC50, Ratio Ab55h:Ipilimumab [9]: 4.5 fold
IC50 [10]: 1.5 nM
Ratio Tremelimumab:Ab55h of EC50 [11]: 3 fold
Ratio Ipilimumab:Ab55h of EC50 [12]: 0.18 fold
IC50 [13]: 1.6 nM
B1: Ab55h (antibody, V domains shown)
VH: QVQLQESGPGLVKPSETLSLTCAVSGYSISGDYYWGWIRQPPGKGLEWIGSIYHSGYTYYNPSLKSRVTISVDTSKNQFSLKLSSVTAADTAVYYCARDSGWYVIAFDYWGQGTLVTVSS
VL: EIVMTQSPATLSVSPGERATLSCRASQSVSSNLAWYQEKPGQAPRLLIYGASTRATGIPARFSGSGSGTEFTLTISSLQSEDFAVYYCQQYNNWPPLTFGGGTKVEIK
notes: Human form, compared with an hIgG1 isotype control

— patent US20210355220A1 (TIKCRO TECHNOLOGIES, published 2021)
